Test results published in US9205136B2, “Human aminoacyl-tRNA synthetase polypeptides useful for the regulation of angiogenesis” (THE SCRIPPS RESEARCH INSTITUTE, priority 2000, dated 2015).
Entries after “also recorded” stand apart in the source; their conditions may differ.

Experiments:
[1] = tested on: MPs; assay: MP tissue factor production (Factor VIIa-dependent Factor Xa formation); assay type: cell-based, human; conditions: 1 nM sample protein, 4 hours
Procedure: (§1) Cells for the various cytokine assays described were prepared from acid citrate dextrose-treated blood of normal healthy volunteers. Human PMNs were isolated from the blood by centrifugation (700×g) over Histopaque 1077 and 1119 (Sigma). […] This procedure was repeated twice. Human MPs were isolated by centrifugation on Histopaque 1077 (Sigma). The mononuclear fraction was obtained, washed twice in Hanks' balanced salt solution, resuspended in RPMI-1640 medium (Sigma) containing 10% heat-inactivated fetal bovine serum (Sigma), plated in tissue culture flasks, and incubated in a 6% CO2 incubator at 37° C. for 1-2 hours (Kumagai et al., 1979, J. Immunol. Methods 29:17-25). Nonadherent cells were removed by washing the flasks three times with Hanks' balanced salt solution, and adherent cells were harvested by incubation with calcium-magnesium free phosphate-buffered saline containing 2 mM EDTA for 15 minutes at 4° C., followed by extensive washing.
MP tissue factor production was examined following incubation of 10^4 MPs with 1 nM of sample protein for 4 hours. Tissue factor activity was then inferred from measurements of Factor VIIa-dependent Factor Xa formation (Wolfson et al., 1990 J. Chromatogr., 503:277-81). Each determination shown in FIG. 2 represents the mean of four measurements from at least three independent experiments.

[2] = tested on: human umbilical vein endothelial cells (HUVECs); assay: HUVEC migration assay (modified Boyden chamber); assay type: cell-based; conditions: 50 nM TyrRS molecule or 0.5 nM VEGF165, 6 hours
Procedure: In contrast, α-chemokines lacking the ELR motif act as angiostatic factors (id.). In order to evaluate the angiogenic activity of TyrRS, which contains the ELR motif, human full-length TyrRS and human mini TyrRS were first examined for their ability to induce endothelial cell migration. Such angiogenic assays were performed using human umbilical vein endothelial cells (HUVECs) (Clonetics, Walkersville, Md.). Cells were maintained in EGM-2® BULLETKIT® medium (Clonetics) in an atmosphere of 6% CO2 at 37° C. according to the supplier's instructions.
Cell migration assays were performed using the modified Boyden chamber (6.5 mm Transwells) with polycarbonate membranes (8.0 μm pore size) (Costar Corp., Cambridge, Mass.) (Masood et al., 1999, Blood 93:1038-44). Wells were coated overnight with 25 μg/mL human fibronectin (Biosource International, Camarillo, Calif.) in PBS and then allowed to air-dry. HUVECs were suspended in Dulbecco's modified Eagle's medium (DMEM) (Gibco-BRL, Gaithersburg, Md.) containing 0.1% BSA (Sigma) and 2×10^5 cells per well were added to the upper chamber. The chemotactic stimulus (50 nM of a given TyrRS molecule or 0.5 nM of human vascular endothelial growth factor-165 (VEGF165) (Biosource International, Camarillo, Calif.)) was placed in the lower chamber, and the cells were allowed to migrate for 6 hours at 37° C. in a 6% CO2 incubator. After incubation, non-migrant cells were removed from the upper face of the Transwell membrane with a cotton swab and migrant cells, those attached to the lower face, were fixed in methanol and visualized with the HEMACOLOR® stain set (EM Diagnostic Systems, Gibbstown, N.J.). Migrating cells were counted in high-power fields (HPFs). HUVECs were suspended in media with the inhibitor for 30 minutes before placement in the chamber. Each determination shown in FIG. 16 represents the average of nine HPF measurements.

[3] = tested on: MPs; assay: MP TNFα production (ELISA of culture supernatant); assay type: cell-based, human; conditions: 1 nM sample protein, 14 hours
Procedure: as §1
MP TNFα production was examined following incubation of 10^5 MPs with 1 nM of sample protein for 14 hours. Aliquots of the culture supernatant were then assayed for TNFα production using a TNFα enzyme-linked immunosorbent assay kit (Sigma). Each determination shown in FIG. 2 represents the mean of four measurements from at least three independent experiments.

[4] = target: T1, type A IL-8 receptor (Homo sapiens, UniProt P25024); assay: Binding to RBL2H3 cells transfected with IL-8 receptor type A; conditions: read-out: Kd on cells expressing the type A IL-8 receptor; transfected RBL2H3 rat basophilic leukemia cells
T1 construct: expressed in transfected cells; host or cells: RBL2H3 rat basophilic leukemia cells
T1 sequence (P25024 1-350): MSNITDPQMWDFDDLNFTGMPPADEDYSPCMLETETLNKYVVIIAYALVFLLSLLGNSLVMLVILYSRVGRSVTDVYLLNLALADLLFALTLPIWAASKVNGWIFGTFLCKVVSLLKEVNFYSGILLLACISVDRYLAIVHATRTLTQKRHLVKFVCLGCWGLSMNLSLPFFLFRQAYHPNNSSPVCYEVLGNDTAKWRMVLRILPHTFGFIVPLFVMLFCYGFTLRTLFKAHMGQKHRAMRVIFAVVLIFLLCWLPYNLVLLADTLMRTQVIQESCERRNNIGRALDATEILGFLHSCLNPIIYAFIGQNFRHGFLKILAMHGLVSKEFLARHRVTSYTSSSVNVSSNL
Procedure: Following incubation, cells were separated from unbound radioactivity as described herein.
Untransfected RBL2H3 cells express neither the type A nor type B receptors.

[5] = tested on: PMNs; assay: 125I-human mini TyrRS binding and competition assay on PMNs; conditions: 10 nM 125I-mini TyrRS, 200-fold molar excess of unlabeled ligand, on ice 2 hours
In short: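 Human PMNs (2×10^6) in RPMI-1640 with 20 mM Hepes pH 7.4 and 10 mg/ml BSA were incubated with radioiodinated mini TyrRS. Bound and free label were separated by centrifugation through a 10% sucrose/PBS cushion, and cell-associated radioactivity was counted by scintillation.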

[6] = tested on: MPs; assay: MP chemotaxis assay (ChemoTX microchemotaxis chamber); assay type: cell-based, human; conditions: sample proteins 1 nM, 3 hours
In short: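 Adherence-purified human blood mononuclear phagocytes (10^4, in RPMI-1640 with 1% FBS) in upper well above 5 μm PVP-polycarbonate filters, sample proteins at 1 nM below, 3 h incubation. Migrated cells stained and counted; value is the average of nine high-power fields.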

B1: mini TyrRS: truncated TyrRS, residues 1-364 of full-length TyrRS, amino-terminal catalytic domain (protein)
chain: MGDAPSPEEKLHLITRNLQEVLGEEKLKEILKERELKIYWGTATTGKPHVAYFVPMSKIADFLKAGCEVTILFADLHAYLDNMKAPWELLELRVSYYENVIKAMLESIGVPLEKLKFIKGTDYQLSKEYTLDVYRLSSVVTQHDSKKAGAEVVKQVEHPLLSGLLYPGLQALDEEYLKVDAQFGGIDQRKIFTFAEKYLPALGYSKRVHLMNPMVPGLTGSKMSSSEEESKIDLLDRKEDVKKKLKKAFCEPGNVENNGVLSFIKHVLFPLKSEFVILRDEKWGGNKTYTAYVDLEKDFAAEVVHPGDLKNSVEVALNKLLDPIREKFNTPALKKLASAAYPDPSKQKPMAKGPAKNSEPEEVILEHHHHHH
modifications: His6 tag; Human mini TyrRS in pET20B
notes: truncated TyrRS, residues 1-364 of full-length TyrRS, amino-terminal catalytic domain
- MP tissue factor production [1]: did not stimulate production
- HUVEC chemotaxis [2]: stimulated induction of HUVEC chemotaxis
- MP TNFα production [3]: did not stimulate production
- Kd [4]: 8 nM
- inhibition of 125I-mini TyrRS binding to PMNs by unlabeled ligand [5]: inhibited the binding; also recorded: inhibited by the presence of excess amounts of unlabeled mini TyrRS
- MP chemotaxis (MP migration) [6]: did not induce MP migration
